B1: Tyrosine-protein phosphatase non-receptor type 1 (Homo sapiens), P18031 (parent)
chain: MEMEKEFEQIDKSGSWAAIYQDIRHEASDFPCRVAKLPKNKNRNRYRDVSPFDHSRIKLHQEDNDYINASLIKMEEAQRSYILTQGPLPNTCGHFWEMVWEQKSRGVVMLNRVMEKGSLKCAQYWPQKEEKEMIFEDTNLKLTLISEDIKSYYTVRQLELENLTTQETREILHFHYTTWPDFGVPESPASFLNFLFKVRESGSLSPEHGPVVVHCSAGIGRSGTFCLADTCLLLMDKRKDPSSVDIKKVLLEMRKFRMGLIQTADQLRFSYLAVIEGAKFIMGDSSVQDQWKELSHEDLEPPPEHIPPPPRPPKRILEPHNGKCREFFPNHQWVKEETQEDKDCPIKEEKGSPLNAAPYGIESMSQDTEVRSRVVGGSLRGAQAASPAKGEPSLPEKDEDHALSYWKPFLVNMCVATVLTAGAYLCYRFLFNSNT

Variants of: B1
Settings: with insr_human INSR

Variant	effect of a mutation on the interaction
MEMEKEFEQIDKSGSWAAIYQDIRHEASDFPCRVAKLPKNKNRNRYRDVSPFDHSRIKLHQEDNDYINASLIRMEEAQRSYILTQGPLPNTCGHFWEMVWEQKSRGVVMLNRVMEKGSLKCAQYWPQKEEKEMIFEDTNLKLTLISEDIKSYYTVRQLELENLTTQETREILHFHYTTWPDFGVPESPASFLNFLFKVRESGSLSPEHGPVVVHCSAGIGRSGTFCLADTCLLLMDKRKDPSSVDIKKVLLEMRKFRMGLIQTADQLRFSYLAVIEGAKFIMGDSSVQDQWKELSHEDLEPPPEHIPPPPRPPKRILEPHNGKCREFFPNHQWVREETQEDKDCPIREEKGSPLNAAPYGIESMSQDTEVRSRVVGGSLRGAQAASPARGEPSLPEKDEDHALSYWKPFLVNMCVATVLTAGAYLCYRFLFNSNT [K73R;K335R;K347R;K389R]	decreasing interaction
